± gives the uncertainty stated by the source.
B1: Dynamin-binding protein, residues 242 to 304; numbered along this chain, Q6XZF7 (parent)
chain: EEPGTYGVALYRFQALEPNELDFEVGDKIRILATLEDGWLEGSLKGRTGIFPYRFVKLCPDTR

Variants of: B1
Test: abundance fitness (aPCA) (normalised: wild type 0, dead -1); higher = more abundant; growth selection in yeast, the domain comes from the species named
Settings: Homo sapiens

First: P60K
Second: P60F
The abundance fitness of the first is higher: 0.054 ± 0.11 for the first, -0.149 ± 0.061 for the second.

P60E and P60Y are within error of each other in abundance fitness: -0.076 ± 0.15 for the first, -0.113 ± 0.062 for the second.

Compared with P60N, D27C is lower in abundance fitness: -0.26 ± 0.066 for the first, -0.811 ± 0.099 for the second.

D27L and D27T are within error of each other in abundance fitness: -0.642 ± 0.092 for the first, -0.656 ± 0.18 for the second.

D27R and D27K are within error of each other in abundance fitness: -0.79 ± 0.1 for the first, -0.902 ± 0.49 for the second.

D27N and D27Y are within error of each other in abundance fitness: -0.424 ± 0.086 for the first, -0.587 ± 0.09 for the second.

D27I and W39G are within error of each other in abundance fitness: -0.786 ± 0.13 for the first, -0.714 ± 0.092 for the second.

First: W39T
Second: W39Y
The abundance fitness of the first is lower: -0.492 ± 0.096 for the first, -0.135 ± 0.066 for the second.

Going from W39K to W39H, the abundance fitness falls from -0.395 ± 0.17 to -0.749 ± 0.13.

W39A and D37K are within error of each other in abundance fitness: -0.56 ± 0.085 for the first, -0.287 ± 0.25 for the second.

D37V and E41P are within error of each other in abundance fitness: -0.561 ± 0.068 for the first, -0.669 ± 0.16 for the second.

E41W and E41H are within error of each other in abundance fitness: 0.056 ± 0.13 for the first, -0.072 ± 0.065 for the second.

Going from E41M to E41L, the abundance fitness falls from 0.073 ± 0.2 to -0.256 ± 0.074.

Compared with E41Y, E41S is higher in abundance fitness: -0.274 ± 0.072 for the first, -0.116 ± 0.05 for the second.

Going from L35H to L35D, the abundance fitness falls from -0.114 ± 0.071 to -0.664 ± 0.087.

F23Q and F23P are within error of each other in abundance fitness: -0.767 ± 0.39 for the first, -1.09 ± 0.31 for the second.

F23D and F23W are within error of each other in abundance fitness: -0.867 ± 0.14 for the first, -0.63 ± 0.16 for the second.

Compared with F23V, F23T is lower in abundance fitness: -0.334 ± 0.056 for the first, -0.775 ± 0.12 for the second.

V25M and V25Q are within error of each other in abundance fitness: -0.169 ± 0.16 for the first, -0.548 ± 0.22 for the second.

V25F and V25N are within error of each other in abundance fitness: -0.573 ± 0.08 for the first, -0.736 ± 0.1 for the second.

First: V25P
Second: V25C
The abundance fitness of the first is higher: -0.14 ± 0.081 for the first, -0.328 ± 0.06 for the second.

V25A and E24Q are within error of each other in abundance fitness: -0.089 ± 0.058 for the first, -0.024 ± 0.15 for the second.

Going from E24A to E24D, the abundance fitness rises from -0.593 ± 0.086 to 0.009 ± 0.055.

First: E24C
Second: E24P
The abundance fitness of the first is higher: -0.414 ± 0.062 for the first, -0.75 ± 0.14 for the second.

First: E24T
Second: G42A
The abundance fitness of the first is higher: -0.278 ± 0.086 for the first, -0.702 ± 0.14 for the second.

G42N and G42F are within error of each other in abundance fitness: -0.891 ± 0.12 for the first, -0.745 ± 0.1 for the second.

First: G42Y
Second: G42L
The abundance fitness of the first is lower: -0.924 ± 0.14 for the first, -0.45 ± 0.1 for the second.

G42P and Y6K are within error of each other in abundance fitness: -0.872 ± 0.29 for the first, -0.653 ± 0.2 for the second.

Compared with Y6T, Y6Q is lower in abundance fitness: -0.45 ± 0.094 for the first, -0.927 ± 0.31 for the second.

Y6S and Y6E are within error of each other in abundance fitness: -0.672 ± 0.073 for the first, -0.718 ± 0.2 for the second.

D22K and D22S are within error of each other in abundance fitness: -0.062 ± 0.16 for the first, 0.101 ± 0.046 for the second.

First: D22M
Second: D22P
The abundance fitness of the first is lower: -0.301 ± 0.13 for the first, 0.157 ± 0.074 for the second.

Going from G38A to G38N, the abundance fitness rises from -0.842 ± 0.12 to -0.539 ± 0.1.

G38P and G38L are within error of each other in abundance fitness: -1.06 ± 0.34 for the first, -0.61 ± 0.12 for the second.

First: G49N
Second: G49L
The abundance fitness of the first is higher: -0.499 ± 0.094 for the first, -0.887 ± 0.16 for the second.

G49M and G49S are within error of each other in abundance fitness: -0.711 ± 0.4 for the first, -0.504 ± 0.088 for the second.

G49V and G49H are within error of each other in abundance fitness: -0.782 ± 0.088 for the first, -0.807 ± 0.17 for the second.

E1Y and E1F are within error of each other in abundance fitness: -0.23 ± 0.083 for the first, -0.277 ± 0.11 for the second.

Going from E1H to E1N, the abundance fitness rises from -0.8 ± 0.18 to -0.337 ± 0.087.

Compared with E1D, E1S is higher in abundance fitness: -0.369 ± 0.081 for the first, -0.112 ± 0.068 for the second.

Going from L44G to L44W, the abundance fitness rises from -0.868 ± 0.12 to -0.506 ± 0.21.

Going from L44I to L44A, the abundance fitness falls from -0.133 ± 0.074 to -0.399 ± 0.11.

Compared with L44P, L44V is higher in abundance fitness: -0.575 ± 0.23 for the first, 0.012 ± 0.063 for the second.

L44R and D61Y are within error of each other in abundance fitness: -0.367 ± 0.099 for the first, -0.391 ± 0.057 for the second.

D61W and D61G are within error of each other in abundance fitness: -0.195 ± 0.1 for the first, -0.063 ± 0.06 for the second.

L21Q and L21S are within error of each other in abundance fitness: -0.455 ± 0.2 for the first, -0.542 ± 0.078 for the second.

Compared with L21D, L21T is higher in abundance fitness: -1.03 ± 0.39 for the first, -0.522 ± 0.09 for the second.

L21P and L21A are within error of each other in abundance fitness: -0.782 ± 0.19 for the first, -1.01 ± 0.17 for the second.

L21E and G46A are within error of each other in abundance fitness: -0.643 ± 0.38 for the first, -0.647 ± 0.051 for the second.

G46S and G46K are within error of each other in abundance fitness: -0.474 ± 0.038 for the first, -0.757 ± 0.28 for the second.

G46Y and G46F are within error of each other in abundance fitness: -0.802 ± 0.065 for the first, -0.687 ± 0.051 for the second.

First: T5Q
Second: T5N
The abundance fitness of the first is higher: 0 ± 0.16 for the first, -0.3 ± 0.081 for the second.

Compared with T5K, T5L is higher in abundance fitness: -0.253 ± 0.16 for the first, 0.052 ± 0.059 for the second.

First: T5W
Second: T5G
The abundance fitness of the first is higher: -0.132 ± 0.13 for the first, -0.765 ± 0.093 for the second.

T5F and G7V are within error of each other in abundance fitness: -0.057 ± 0.058 for the first, 0.006 ± 0.049 for the second.

Compared with G7S, G7A is higher in abundance fitness: -0.292 ± 0.051 for the first, 0.36 ± 0.056 for the second.

E20F and E20T are within error of each other in abundance fitness: 0.155 ± 0.056 for the first, 0.06 ± 0.069 for the second.

E20P and E20D are within error of each other in abundance fitness: -1.03 ± 0.35 for the first, -0.631 ± 0.098 for the second.

E20K and E20C are within error of each other in abundance fitness: -0.068 ± 0.11 for the first, -0.014 ± 0.05 for the second.

Compared with E20N, E20V is lower in abundance fitness: -0.227 ± 0.071 for the first, -0.703 ± 0.086 for the second.

L10S and L10E are within error of each other in abundance fitness: -0.457 ± 0.065 for the first, -0.655 ± 0.25 for the second.

L10D and L10P are within error of each other in abundance fitness: -0.679 ± 0.11 for the first, -0.7 ± 0.15 for the second.

Going from V56I to V56Q, the abundance fitness falls from -0.141 ± 0.058 to -0.664 ± 0.22.

First: V56H
Second: E36G
The abundance fitness of the first is lower: -0.696 ± 0.12 for the first, -0.167 ± 0.056 for the second.

Going from E36F to E36R, the abundance fitness rises from -0.711 ± 0.1 to -0.331 ± 0.062.

Going from E36T to R47T, the abundance fitness falls from -0.277 ± 0.089 to -0.678 ± 0.16.

Compared with R47H, R47W is lower in abundance fitness: -0.283 ± 0.08 for the first, -0.676 ± 0.24 for the second.

K57E and K57G are within error of each other in abundance fitness: -0.6 ± 0.23 for the first, -0.58 ± 0.072 for the second.

K57S and K57T are within error of each other in abundance fitness: -0.088 ± 0.038 for the first, -0.167 ± 0.058 for the second.

Compared with K57D, G4N is higher in abundance fitness: -0.257 ± 0.055 for the first, -0.032 ± 0.058 for the second.

Going from G4I to G4E, the abundance fitness rises from 0.078 ± 0.064 to 0.622 ± 0.14.

A15L and A15Q are within error of each other in abundance fitness: -0.626 ± 0.11 for the first, -0.787 ± 0.35 for the second.

A15E and A15N are within error of each other in abundance fitness: -0.734 ± 0.26 for the first, -0.588 ± 0.11 for the second.

Going from A15P to R63L, the abundance fitness rises from -0.355 ± 0.12 to -0.005 ± 0.083.

Compared with R63Q, R63A is higher in abundance fitness: -0.184 ± 0.19 for the first, 0.087 ± 0.073 for the second.

R63V and R63I are within error of each other in abundance fitness: -0.056 ± 0.079 for the first, -0.012 ± 0.061 for the second.

First: R63N
Second: R63C
The abundance fitness of the first is higher: 0.168 ± 0.064 for the first, -0.06 ± 0.062 for the second.

R63W and T34A are within error of each other in abundance fitness: -0.206 ± 0.16 for the first, -0.33 ± 0.075 for the second.

T34Q and T34K are within error of each other in abundance fitness: -0.183 ± 0.12 for the first, -0.036 ± 0.095 for the second.

T34I and T34M are within error of each other in abundance fitness: -0.168 ± 0.062 for the first, -0.086 ± 0.12 for the second.

E2M and E2D are within error of each other in abundance fitness: -0.049 ± 0.15 for the first, -0.151 ± 0.066 for the second.

Compared with E2G, E2C is lower in abundance fitness: -0.166 ± 0.054 for the first, -0.367 ± 0.082 for the second.

First: E2I
Second: E2S
The abundance fitness of the first is higher: -0.013 ± 0.072 for the first, -0.567 ± 0.087 for the second.

With E2H the abundance fitness was 0.127 ± 0.069.

Reference: the Human Domainome abundance scans (Beltran et al. 2025)
